Measured values from the supplement of paper PMC7877785.
± gives the uncertainty stated by the source.

Assay: self-splicing fitness, log relative to wild type (ln ratio); higher = more splicing; Tetrahymena group I intron in knt gene, E. coli kanamycin selection, DiMSum; sequences stand for … in CUCUCU…GGAGGGAAAAGUUAUCAGGCAUGCACCUGGUAGCUAGUCUUUAAACCAAUAGAUUGCAUCGGUUUAAAAGGCAAGACCGUCAAAUUGCGGGAAAGGGGUCAACAGCCGUUCAGUACCAAGUCUCAGGGGAAACUUUGAGAUGGCCUUGCAAAGGGUAUGGUAAUAAGCUGACGGACAUGGUCCUAACCACGCAGCCAAGUCCUAAGUCAACAGAUCUUCUGUUGAUAUGGAUGCAGUUCACAGACUAAAUGUCGGUCGGGGAAGAUGUAUUCUUCUCAUAAGAUAUAGUCGGACCUCUCCUUAAUGGGAGCUAGCGGAUGAAGUGAUGCAACACUGGAGCCGCUGGGAACUAAUUUGUAUGCGAAAGUAUAUUGAUUAGUUUUGGAGUACUCGUGGUCG
Summary of the method: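 Library with all eight P1ex-region intron nucleotides randomised, intron inside the knt kanamycin-resistance gene on pET-22b(+), in E. coli BL21(DE3). Cells grew overnight at 37°C or 30°C on LB agar with or without 25 μg/mL kanamycin (plus 100 μg/mL carbenicillin, 50 μM IPTG, 0.2% rhamnose), in six replicate transformations. Pooled colonies were amplicon-sequenced on Illumina HiSeq 2500. DiMSum fitness is the error-weighted combination of wild-type-normalised replicate fold changes, kanamycin versus none.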

Sequence	self-splicing fitness (ln) (30 °C)	self-splicing fitness (ln) (37 °C)
CCGAAGCAAUAUUACGGUCG	-0.661 ± 0.11	-0.369 ± 0.14
UGCAAGCAAUAUUACGUUGU	-4.31 ± 0.24	-2.78 ± 0.2
CGGGAGCAAUAUUACGGCAU	–	-1.8 ± 0.35
GCCUAGCAAUAUUACGUCUU	-1.54 ± 0.098	-1.68 ± 0.11
GUGCAGCAAUAUUACGUUAC	-3.66 ± 0.33	-2.93 ± 0.38
CAUCAGCAAUAUUACGGCAU	-2.85 ± 0.15	-1.66 ± 0.17
CGACAGCAAUAUUACGAAGC	-2.91 ± 0.24	-3.43 ± 0.35
UCACAGCAAUAUUACGUUCU	-3.63 ± 0.22	-1.5 ± 0.13
GGGUAGCAAUAUUACGUUGU	-2.46 ± 0.19	-1.14 ± 0.17
CAUAAGCAAUAUUACGGUCG	0.0543 ± 0.064	-0.0112 ± 0.079
GAGGAGCAAUAUUACGAGGC	-3.47 ± 0.47	–
GCGUAGCAAUAUUACGAUCG	-1.34 ± 0.12	-0.204 ± 0.13
CAAUAGCAAUAUUACGGACA	-2.44 ± 0.16	-1.5 ± 0.15
AGCCAGCAAUAUUACGGAAG	-1.57 ± 0.1	0.171 ± 0.12
GGAAAGCAAUAUUACGGAGG	-3.5 ± 0.24	-2.31 ± 0.21
UUUGAGCAAUAUUACGAGCA	–	-1.53 ± 0.43
CAGGAGCAAUAUUACGUUGC	–	-2.26 ± 0.28
CCUCAGCAAUAUUACGGCAC	-3.55 ± 0.15	-2 ± 0.17
GAUGAGCAAUAUUACGUCAU	-3.15 ± 0.32	-2.99 ± 0.32
CCCUAGCAAUAUUACGAGUC	-3.63 ± 0.21	-2.28 ± 0.27
ACCCAGCAAUAUUACGACCA	-0.474 ± 0.1	-0.703 ± 0.14
UGCGAGCAAUAUUACGCGGC	-3.44 ± 0.33	-3.46 ± 0.46
ACAGAGCAAUAUUACGAUCU	-1.68 ± 0.22	–
UUGCAGCAAUAUUACGUUUC	-3.59 ± 0.27	-3.17 ± 0.34
CGCGAGCAAUAUUACGUACU	-3.32 ± 0.28	-2.3 ± 0.31
CCAUAGCAAUAUUACGCAUU	-3.65 ± 0.26	-2.84 ± 0.36

Sequence	self-splicing fitness (ln) (30 °C)	self-splicing fitness (ln) (37 °C)
UCUCAGCAAUAUUACGUCCU	-2.36 ± 0.14	-2.57 ± 0.24
ACUAAGCAAUAUUACGGAGG	-2.52 ± 0.11	-1.16 ± 0.13
AAUCAGCAAUAUUACGCUCA	0.294 ± 0.074	0.323 ± 0.1
CCUUAGCAAUAUUACGAAGC	-3.24 ± 0.3	-1.56 ± 0.32
GCCAAGCAAUAUUACGGUAG	-3.67 ± 0.22	-2.82 ± 0.18
CUAGAGCAAUAUUACGGACG	0.0877 ± 0.07	0.427 ± 0.097
AGCUAGCAAUAUUACGACUU	-0.59 ± 0.11	-0.0618 ± 0.12
GAUAAGCAAUAUUACGAUGC	-0.7 ± 0.11	-0.45 ± 0.11
UAAUAGCAAUAUUACGCCUG	-0.203 ± 0.13	-0.254 ± 0.16
UCCAAGCAAUAUUACGAUCC	–	-0.628 ± 0.48
AGGAAGCAAUAUUACGGCAG	-2.3 ± 0.31	-0.552 ± 0.32
GUUCAGCAAUAUUACGAGUA	-1.66 ± 0.19	-0.65 ± 0.16
AAAAAGCAAUAUUACGUUAC	-2.57 ± 0.14	-1.91 ± 0.15
ACACAGCAAUAUUACGCACC	-0.476 ± 0.09	-0.151 ± 0.11
UACUAGCAAUAUUACGAUAU	-3.18 ± 0.17	-2.36 ± 0.17
UGCAAGCAAUAUUACGAGGC	-4.02 ± 0.27	-2.13 ± 0.23
GCAAAGCAAUAUUACGAGUA	-2.1 ± 0.087	-1.15 ± 0.086
GUUGAGCAAUAUUACGUCUU	-1.53 ± 0.17	-1.72 ± 0.2
UACUAGCAAUAUUACGUUUC	-4.15 ± 0.33	-2.53 ± 0.23
UAUUAGCAAUAUUACGGACG	-0.257 ± 0.11	0.171 ± 0.12
GCAAAGCAAUAUUACGCGAC	-3.4 ± 0.13	-1.54 ± 0.16
AAUUAGCAAUAUUACGUGAU	-1.87 ± 0.13	-1.56 ± 0.16
GGCCAGCAAUAUUACGUGGA	-4.07 ± 0.25	-2.49 ± 0.17
AUCGAGCAAUAUUACGAAAG	-2.41 ± 0.13	-0.783 ± 0.14
GGCCAGCAAUAUUACGCUAA	-0.606 ± 0.09	-0.303 ± 0.1
AGAAAGCAAUAUUACGACCU	0.52 ± 0.099	0.265 ± 0.11

Sequence	self-splicing fitness (ln) (30 °C)	self-splicing fitness (ln) (37 °C)
UAGGAGCAAUAUUACGUUUC	-2.55 ± 0.29	-2.68 ± 0.44
GCCUAGCAAUAUUACGAGGA	-0.444 ± 0.06	-0.065 ± 0.067
GAGAAGCAAUAUUACGACGA	-0.554 ± 0.066	-0.104 ± 0.09
GUAGAGCAAUAUUACGCGAG	-1.69 ± 0.14	-0.548 ± 0.14
CAUCAGCAAUAUUACGAGAA	-2.12 ± 0.21	-2.09 ± 0.18
UGGGAGCAAUAUUACGCGUU	-2.33 ± 0.28	-2.02 ± 0.44
CUGAAGCAAUAUUACGUAUA	-2.8 ± 0.18	-2.19 ± 0.27
AUUUAGCAAUAUUACGAUCU	0.177 ± 0.13	0.0446 ± 0.11
UAUCAGCAAUAUUACGGCGA	-0.382 ± 0.1	1.02 ± 0.13
ACAUAGCAAUAUUACGACUC	-0.657 ± 0.086	-0.29 ± 0.13
AGGCAGCAAUAUUACGGACC	-0.728 ± 0.14	-0.53 ± 0.18
UCUCAGCAAUAUUACGAGAC	-2.81 ± 0.15	-2.71 ± 0.21
ACAGAGCAAUAUUACGUACU	-2.96 ± 0.27	-2.14 ± 0.21
ACCAAGCAAUAUUACGCCAG	-2.75 ± 0.16	-1.42 ± 0.18
UACUAGCAAUAUUACGGUAC	-3.01 ± 0.18	-2.53 ± 0.23
AUUAAGCAAUAUUACGAAGC	-3.3 ± 0.25	-2.52 ± 0.31
GGGAAGCAAUAUUACGAGGA	-3.34 ± 0.48	-2.24 ± 0.29
AAGAAGCAAUAUUACGCGCC	-0.652 ± 0.13	-0.664 ± 0.2
GCUUAGCAAUAUUACGGCGU	-0.354 ± 0.1	-0.748 ± 0.11
CCUCAGCAAUAUUACGUAUU	-4.06 ± 0.24	-2.61 ± 0.21
UUAAAGCAAUAUUACGUUGU	-3.19 ± 0.13	-1.4 ± 0.13
UCGCAGCAAUAUUACGGGUG	-1.16 ± 0.053	-1.03 ± 0.074
GCAAAGCAAUAUUACGGUCC	-1.75 ± 0.14	-0.8 ± 0.15
AUACAGCAAUAUUACGUCUA	-0.606 ± 0.078	-0.238 ± 0.079
CGACAGCAAUAUUACGCGGA	-2.18 ± 0.12	-1.9 ± 0.089
